Among the data in patent US20260265379A1 are Jurkat-Vy9Vo2 TCR MOP activation values, retold here.

Sequences and labels used below:
B1: bsAb037 (bispecific antibody, not shown: small tags and cut ends; a dimerising Fc or GST)
heavy 1: QVQLVQSGVEVKKPGASVKVSCKASGYTFTNYYMYWVRQAPGQGLEWMGGINPSNGGTNFNEKFKNRVTLTTDSSTTTAYMELKSLQFDDTAVYYCARRDYRFDMGFDYWGQGTTVTVSS
heavy 2: DIQMTQSPSSLSASVGDRVTITCHASQNINVWLSWYQQKPGKAPKLLIYKASNLHTGVPSRFTGSGSGTDFTFTISSLQPEDIATYYCQQGQTYPYTFGQGTKLEIKGGGGSGGGGSGGGGSGGGGSQVQLVQSGAEVKKPGASVKLSCKASGYIFTRYYMYWVKQRPGQGLEWIGEINPNNGGTKFNEKFKNRATLTVDKSISTAYMELSRLRSDDTAVYYCSREDDYDGTPFAMDYWGQGTLVTVSSGGGGSGGGGSGGGGSGGGGS
light: EIVLTQSPATLSLSPGERATLSCRASKGVSTSGYSYLHWYQQKPGQAPRLLIYLASYLESGVPARFSGSGSGTDFTLTISSLEPEDFAVYYCQHSRDLPLTFGGGTKVEIKRTVAAPSVFIFPPSDEQLKSGTASVVCLLNNFYPREAKVQWKVDNALQSGNSQESVTEQDSKDSTYSLSSTLTLSKADYEKHKVYACEVTHQGLSSPVTKSFNRGECGGGGSGGGGSGGGGSGGGGSQVQLVQSGAEVKKPGASVKLSCKASGYIFTRYYMYWVKQRPGQGLEWIGEINPNNGGTKFNEKFKNRATLTVDKSISTAYMELSRLRSDDTAVYYCSREDDYDGTPFAMDYWGQGTLVTVSSGGGGSGGGGSGGGGSGGGGSDIQMTQSPSSLSASVGDRVTITCHASQNINVWLSWYQQKPGKAPKLLIYKASNLHTGVPSRFTGSGSGTDFTFTISSLQPEDIATYYCQQGQTYPYTFGQGTKLEIK
B2: bsAb021 (bispecific antibody)
heavy: QVQLVQSGAEVKKPGASVKLSCKASGYIFTRYYMYWVKQRPGQGLEWIGEINPNNGGTKFNEKFKNRATLTVDKSISTAYMELSRLRSDDTAVYYCSREDDYDGTPFAMDYWGQGTLVTVSSGGGGSGGGGSGGGGSGGGGSDIQMTQSPSSLSASVGDRVTITCHASQNINVWLSWYQQKPGKAPKLLIYKASNLHTGVPSRFTGSGSGTDFTFTISSLQPEDIATYYCQQGQTYPYTFGQGTKLEIKGGGGSGGGGSGGGGSGGGGSQVQLVQSGVEVKKPGASVKVSCKASGYTFTNYYMYWVRQAPGQGLEWMGGINPSNGGTNFNEKFKNRVTLTTDSSTTTAYMELKSLQFDDTAVYYCARRDYRFDMGFDYWGQGTTVTVSSASTKGPSVFPLAPSSKSTSGGTAALGCLVKDYFPEPVTVSWNSGALTSGVHTFPAVLQSSGLYSLSSVVTVPSSSLGTQTYICNVNHKPSNTKVDKRVEPKSCDKTHTCPPCPAPEFEGGPSVFLFPPKPKDTLMISRTPEVTCVVVDVSHEDPEVKFNWYVDGVEVHNAKTKPREEQYNSTYRVVSVLTVLHQDWLNGKEYKCKVSNKALPASIEKTISKAKGQPREPQVYTLPPSREEMTKNQVSLTCLVKGFYPSDIAVEWESNGQPENNYKTTPPVLDSDGSFFLYSKLTVDKSRWQQGNVFSCSVMHEALHNHYTQKSLSLSPG
light: EIVLTQSPATLSLSPGERATLSCRASKGVSTSGYSYLHWYQQKPGQAPRLLIYLASYLESGVPARFSGSGSGTDFTLTISSLEPEDFAVYYCQHSRDLPLTFGGGTKVEIKRTVAAPSVFIFPPSDEQLKSGTASVVCLLNNFYPREAKVQWKVDNALQSGNSQESVTEQDSKDSTYSLSSTLTLSKADYEKHKVYACEVTHQGLSSPVTKSFNRGEC
B3: bsAb034 (bispecific antibody, not shown: small tags and cut ends; a dimerising Fc or GST)
heavy (part 1 of 2): B1 heavy 1
heavy (part 2 of 2): GGGGSGGGGSGGGGSGGGGSQVQLVQSGAEVKKPGASVKLSCKASGYIFTRYYMYWVKQRPGQGLEWIGEINPNNGGTKFNEKFKNRATLTVDKSISTAYMELSRLRSDDTAVYYCSREDDYDGTPFAMDYWGQGTLVTVSSGGGGSGGGGSGGGGSGGGGSDIQMTQSPSSLSASVGDRVTITCHASQNINVWLSWYQQKPGKAPKLLIYKASNLHTGVPSRFTGSGSGTDFTFTISSLQPEDIATYYCQQGQTYPYTFGQGTKLEIK
heavy: B3 heavy (part 2 of 2)
light: B2 light

The target in the assay is BTN3A expressed at the cell surface (human), O00481. Put plainly: cell-based or functional assay.
BTN3A expressed at the cell surface (human), O00481, sequence (O00481 30-513): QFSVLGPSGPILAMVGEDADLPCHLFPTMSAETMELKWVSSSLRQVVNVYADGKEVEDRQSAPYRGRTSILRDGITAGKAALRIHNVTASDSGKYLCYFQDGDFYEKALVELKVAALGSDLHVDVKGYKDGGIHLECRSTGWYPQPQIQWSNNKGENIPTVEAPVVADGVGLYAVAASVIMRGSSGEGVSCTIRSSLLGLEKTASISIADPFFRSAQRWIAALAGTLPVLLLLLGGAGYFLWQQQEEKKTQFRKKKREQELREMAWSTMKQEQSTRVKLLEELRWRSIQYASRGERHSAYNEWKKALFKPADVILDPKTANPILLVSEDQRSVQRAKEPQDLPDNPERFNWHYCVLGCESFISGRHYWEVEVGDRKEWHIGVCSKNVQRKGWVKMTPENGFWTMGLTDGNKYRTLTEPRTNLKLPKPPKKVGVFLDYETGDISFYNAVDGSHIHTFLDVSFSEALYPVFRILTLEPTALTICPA
For the molecule B1, the Jurkat-Vy9Vo2 TCR MOP activation at 0.5 nM (fold-change to medium) was determined as 1.2 and the Jurkat-Vy9Vo2 TCR MOP activation at 5 nM (fold-change to medium) is 1.7.

Consider B2, for which the Jurkat-Vy9Vo2 TCR MOP activation at 0.5 nM (fold-change to medium) is 1.6 and the Jurkat-Vy9Vo2 TCR MOP activation at 5 nM (fold-change to medium) was determined as 1.5.

The molecule B3 returned a Jurkat-Vy9Vo2 TCR MOP activation at 0.5 nM (fold-change to medium) of 0.9 and a Jurkat-Vy9Vo2 TCR MOP activation at 5 nM (fold-change to medium) of 1.1.
